Experimental data reported in doi:10.1101/2024.08.06.606614 (bioRxiv, 2024).

B1: SPAG16 (natural protein)
chain: MAAPSGVPPLRVLEELGIGLSPTGEVTEAVTSEGAYYLEQVTITETSEDECEYEEIPDDNFSIPEGEEDLEKAIHIIGEQARDIHILEQQTILPARNVMQEAIEDFLCNFLIKMGMTRTLDCFQAEWYELIQKKGSDFKGLGNVPDVYSQVMLLETENKNLKKELKHFKQAAEKAKEDLLRTQKERDFHRMHHKRIVQEKNKLIADLKGLKLHYASYEPTIRVLHEKHHALLKEKMLTSLERDRAVGKISGLQATLKNIDMGHIQVPVIKGSYESASITRESGDRAGHSCEKENSSEGPTQKSLREAREEVGYKSKLKNEKKDSEFPVDMQPDPNVTSCTENVSAAKFDYKLNNIFRLHELPVSCIVMHPCRDYLISCSEDRLWKMVGLPQGNVLLTGSGHTDWLSGCCFHPSGSKLATSSGDSTIKLWDLNKGECTLTLEGHNHAVWSCTWHSCGDFVASASLDMTSKIWDVNSERCRYTLYGHTDSVNSIEFFPFSNILLTASADKTLSVWDARTGKCEQSLYGHMHSVNDATFTPRGHIIASCDARGVTKLWDFRKLIPIVSIDVGPSSGNEVNFDQSGRVLAQASANGIIHLLDLKSGQIHKLVGHESEVHSVVFSHLGENLYSGGSDGTIRLWI
B2: GOT1L1 (putative aspartate aminotransferase) (natural protein)
chain: MTSLSVFRDVPTAQKLEGSLLKIYRQDGYPSKLFLAYKVCMTEEGHPWVSLVVHKTRLQIAEDPSLDYEYLPLVGLKSFIQSSLELLFGKHSEAIAEKRVGGVHIVGESGAFQLGAQFLKTWRKNVKIVCIVSCQKEQCGLIFQDMGFIVYEYSIWNASDLCSDPSMFVEVLQHIPVGSILVIGNITDCKFTQNQWTKLMSIIKSKQIFPFFDIPCQGLSTGDLEEDTKILQYFVSLGLEFFCSQSLSKNFGIYDEGVGILVVAALSNQHLLCVLSQLMDYVQALWGNPPATGARIITSILCNPALFGEWKQSLKGVVENMMLIKEKVKEKLRLLGTPGSWDHITRQSGTHGYLGLTYQQVEFLVKKKHIYLPKTSRINFTCINARNIDYITQSIHEAVMLTEG
B3: germ cell-less 1 (GMCL1) (natural protein)
chain: MGALSSRVLRPAGRTEQPEPTPGAGGAARRSDAGEDAGHSFCYCPGGRKRKRSSGTFCYCHPDSETDDDEDEGDEQQRLLNTPRRKKLKSTSKYIYQTLFLNGENSDIKICALGEEWSLHKIYLCQSGYFSSMFSGSWKESSMNIIELEIPDQNIDIEALQVAFGSLYRDDVLIKPSRVVAILAAACMLQLDGLIQQCGETMKETISVRTVCGYYTSAGTYGLDSVKKKCLEWLLNNLMTHQSVELFKELSINVMKQLIGSSNLFVMQVEMDVYTALKKWMFLQLVPSWNGSLKQLLTETDVWFSKWKKDFEGTTFLETEQGKPFAPVFRHLRLQYIISDLASARIIEQDSLVPSEWLAAVYKQQWLAMLRAEQDSEVGPQEINKEELEGNSMRCGRKLAKDGEYCWRWTGFNFGFDLLVTYTNRYIIFKRNTLNQPCSGSVSLQPRRSIAFRLRLASFDSSGKLICSRATGYQILTLEKDQEQVVMNLDSRLLIFPLYICCNFLYISPEKRTESNRHPENPGH
B4: CFAP70 (natural protein)
chain: MDQTSSTTKIVHITVTNGYDLKGFKGDTPVTFVRAEFNQTVLGDSSKVTVSPEGTAKYNFTSNIDLSPDGGGALDDLAHKPLFLTVTEVLPKEKKQKDEKTLILGQAVVDLLPLLEGEESFETTVPLHPVPGSPLETPLPGSKQCSLDVKVFVAEPLLTPAQVSASNLLKVTLEAAYSVPESFIPVGPQQNYMVGLQVPSVGEKDYTMIFKNGNLKLGGEKEPVPRPKKWPIANILAPGASNIPDEFIVGGPYEEEEGELNHPEDREFRNQAECTKKRIVWDLESRCFLHPFAVASFQKRIADCRLWPVEITRVPLVVMPKAKPGKLEKIDDENQLSFHGVAYINMVPLLYPGVKKIRGAFHVYPYLDGTVFEKTKCLFSLFRDTGHHLVQNNKAGGLNSPLSKPLSKNLKEEKPGKDKDTEGRPRLGELQAPSIKSQSSDTPLESEAPLSHNLEGQQYIEAGTYIVLEIQLEKALVPKRMPEELARRVKEMIPPRPPLTRRTGGAQKAVSDYHTQIKSISRAILNEYYRMFGKQGPKLESDIDNETMEERKCQLNYELNCSGKYFAFKEQLKHAVVKIVREKYLKTTAFESQEELQTFISELYVFLVDQMHVALNQAVPDDVPSSTSTIQTSSEQLRLFAFEAEVNEKFEIAAMYYEERLVREPQNLENWLDYGAFCLLTEDNIKAQECFRKALSLNESHVDSLLLCGVLAILLENYEQAEIFFEDATCLEPTNVIAWTLLGLFYEIQNNDIRMEMAFHEAFKQLQARTLQTKLKSTVTIENMEEGVKVEPSFGPWGVVQESTTAIKTEGLSGMRPQSSHQLSPHTNMELHPQPQGPNTALSSLDEFLEESPKAQSESQEPMATGQPLEPSLVQRSSNALLKELTSKKDISKCQDSSAFSPPTQHVIAQPPVTIFMETIRFLMKVNAVQFVHRVLAHELLCPQGGPSCEYYLVLAQTHLLKKDFAKTEEYLQQAAQMDYLNPNVWGVKGHLYFLSGNHAEAKECYERTISFVVDASEMHFIFLRLGHIYLEEKEYENAKRTYMHACKRSPSCLTWLGLGIACYRLEELTEAEDALSEANALNNCNAEVWAYLALVCLKVGRQLEAEQAYKYTIKLKLKDQALLEEIHTVQEMVGFGNPSF

What was measured:
[1] = molecular target: HYDIN (mouse (endogenous in mouse sperm)) (UniProt Q80W93); test: cryo-EM structure
[2] = molecular target: the molecule itself; test: cryo-EM structure

Molecule	stoichiometry N [1]	stoichiometry N [2]
HYDIN, Q80W93 1-5154	3	–
B1	–	2
B2	–	2
B3	–	2
B4	–	2
